Experiment [1] deals with T1, SSB (UniProt P05455 1-408).
T1 sequence: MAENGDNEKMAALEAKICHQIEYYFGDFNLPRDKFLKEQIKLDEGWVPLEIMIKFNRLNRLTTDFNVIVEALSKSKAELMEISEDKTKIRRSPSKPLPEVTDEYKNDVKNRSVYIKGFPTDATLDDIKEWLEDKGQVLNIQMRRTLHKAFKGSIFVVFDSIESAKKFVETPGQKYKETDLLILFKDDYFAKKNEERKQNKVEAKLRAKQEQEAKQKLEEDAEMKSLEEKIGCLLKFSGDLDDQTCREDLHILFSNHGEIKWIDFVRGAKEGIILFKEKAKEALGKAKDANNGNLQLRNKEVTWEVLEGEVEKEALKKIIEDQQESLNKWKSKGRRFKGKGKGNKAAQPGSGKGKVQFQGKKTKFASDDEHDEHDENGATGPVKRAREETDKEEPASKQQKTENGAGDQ
In words: AtheNA, Ab 25 ug/ml.

The target of experiment [2] is T2, Sm (Smith antigen).
T2 construct: Protein complex
Put plainly: AtheNA, Ab 25 ug/ml.

Experiment [3] has as its target T3, Scl-70 (UniProt P11387 1-765).
T3 sequence: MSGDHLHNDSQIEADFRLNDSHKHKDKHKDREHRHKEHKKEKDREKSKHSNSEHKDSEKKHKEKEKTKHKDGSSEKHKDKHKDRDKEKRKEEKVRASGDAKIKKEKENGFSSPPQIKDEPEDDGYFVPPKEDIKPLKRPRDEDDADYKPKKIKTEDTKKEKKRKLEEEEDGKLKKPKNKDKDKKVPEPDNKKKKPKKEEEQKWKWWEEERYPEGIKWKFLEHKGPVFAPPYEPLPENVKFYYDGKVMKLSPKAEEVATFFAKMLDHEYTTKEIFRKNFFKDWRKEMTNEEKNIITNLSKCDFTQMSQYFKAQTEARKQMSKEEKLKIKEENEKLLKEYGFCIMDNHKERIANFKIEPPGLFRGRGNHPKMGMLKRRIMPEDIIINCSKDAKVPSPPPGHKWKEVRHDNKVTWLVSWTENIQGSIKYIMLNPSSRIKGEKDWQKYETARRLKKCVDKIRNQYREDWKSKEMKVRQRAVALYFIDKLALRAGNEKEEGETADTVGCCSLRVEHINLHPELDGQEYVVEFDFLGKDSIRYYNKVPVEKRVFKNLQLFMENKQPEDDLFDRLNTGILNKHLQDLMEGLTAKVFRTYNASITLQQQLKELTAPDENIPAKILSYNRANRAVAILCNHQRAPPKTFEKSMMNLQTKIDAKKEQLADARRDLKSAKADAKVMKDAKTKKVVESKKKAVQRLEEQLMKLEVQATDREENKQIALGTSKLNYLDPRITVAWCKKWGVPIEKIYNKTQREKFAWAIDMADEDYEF
Put plainly: AtheNA, Ab 25 ug/ml.

Experiment [4] deals with T4, Centromere B (UniProt P07199 1-599).
T4 construct: also called Cent B
T4 sequence: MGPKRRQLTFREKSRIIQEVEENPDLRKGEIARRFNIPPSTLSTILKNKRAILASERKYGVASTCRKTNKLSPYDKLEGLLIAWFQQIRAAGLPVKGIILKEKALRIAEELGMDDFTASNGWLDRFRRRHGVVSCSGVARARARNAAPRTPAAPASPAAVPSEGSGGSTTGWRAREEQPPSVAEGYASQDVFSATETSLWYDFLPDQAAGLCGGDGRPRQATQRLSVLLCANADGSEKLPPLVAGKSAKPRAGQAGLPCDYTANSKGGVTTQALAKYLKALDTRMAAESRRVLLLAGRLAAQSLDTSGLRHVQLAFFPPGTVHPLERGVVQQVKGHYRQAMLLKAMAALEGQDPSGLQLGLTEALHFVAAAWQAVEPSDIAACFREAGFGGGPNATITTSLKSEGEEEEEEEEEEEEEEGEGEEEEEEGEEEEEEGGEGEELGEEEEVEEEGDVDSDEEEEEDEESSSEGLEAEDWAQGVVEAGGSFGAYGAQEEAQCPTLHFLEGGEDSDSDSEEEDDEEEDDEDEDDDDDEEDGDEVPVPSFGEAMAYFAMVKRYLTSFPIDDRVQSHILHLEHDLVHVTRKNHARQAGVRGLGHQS
Put plainly: AtheNA, Ab 25 ug/ml.

The target in experiment [5] is T5, SSA.
T5 construct: also called SSA (Ro)
In words: AtheNA, Ab 50 ug/ml.
Text: (§1) AtheNA Multi-Lyte ANA Plus Test System is one such assay. This is luminex-based assay, which is also used to screen patient sera.

Experiment [6] has as its target T1, SSB. In words: AtheNA, Ab 50 ug/ml.
Text: as §1
For experiment [7], the target named is T2, Sm (Smith antigen). In words: AtheNA, Ab 50 ug/ml.
Text: as §1
In experiment [8] the target is T6, RNP (ribonucleoprotein).
T6 construct: Protein-RNA complex
Put plainly: AtheNA, Ab 50 ug/ml.
Text: as §1

Experiment [9] has as its target T3, Scl-70. In words: AtheNA, Ab 50 ug/ml.
Text: as §1
Experiment [10] addresses T7, Histones.
T7 construct: Mixture of proteins
Put plainly: AtheNA, Ab 50 ug/ml.
Text: as §1

Experiment [11] deals with T5, SSA. In words: AtheNA, Ab 6.25 ug/ml.
Text: as §1
Experiment [12] deals with T1, SSB. Put plainly: AtheNA, Ab 6.25 ug/ml.
Text: as §1
The target in experiment [13] is T2, Sm (Smith antigen). In words: AtheNA, Ab 6.25 ug/ml.
Text: as §1
Experiment [14] concerns the target T3, Scl-70. In words: AtheNA, Ab 6.25 ug/ml.
Text: as §1
For experiment [15], the target named is T7, Histones. In words: AtheNA, Ab 6.25 ug/ml.
Text: as §1
For experiment [16], the target named is T8, CH505.TF mutant gp120 M6 (HIV-1).
T8 construct: domain: gp120
In words: direct-binding ELISA (OD450), panel 'CH505.TF gp120 M6'. (ELISA stands for enzyme-linked immunosorbent assay.)

B1: CH557 (antibody, V domains shown)
VH: QVRLAQYGGGVKRLGATMTLSCVASGYTFNDYYIHWVRQAPGQGFELLGYIDPANGRPDYAGALRERLSFYRDKSMETLYMDLRSLRYDDTAMYYCVRNVGTAGSLLHYDHWGSGSPVIVSS
VL: EIVLTQSPATLSASPGERVTLTCRASRSVRNNVAWYQHKGGQSPRLLIYDASTRAAGVPARFSGSASGTEFTLAISNLESEDFTVYFCLQYNNWWTFGQGTRVDIK
notes: also called CH235.12; CH557_4A/293i
Turning to B1, the AtheNA signal is 12 relative luminescence units in [1], 6 relative luminescence units in experiment [2], 4 relative luminescence units in experiment [3] and 25 relative luminescence units in experiment [4].

B2: CH493 (antibody, V domains shown)
VH: QVRLLQYGGGVKRPGASMTISCVASGYNFNDYYIHWVRQAPGQGLELMGWIDPSGGRTDYAGAFGDRVSMYRDKSMNTLYMDLRSLRSGDTAMYYCVRNVGTAGSLLHYDHWGLGVMVTVSS
VL: EIVLTQSPATLSVSPGERVTLSCRASQSVRNNLAWYRQKRGQAPRLLIYGASTRATGIPARFSGSGSGTEFTLTISSMQSEDFAVYYCQQYNNWWTFGQGTKVEIK
notes: also called CH235.9; DH493
In the case of B2, the AtheNA signal in [5] was determined as 155; in experiment [6], 70; in [7], 37; in [8], 69; in experiment [9], 36; in experiment [10], 166. In addition, the AtheNA signal in experiment [11] was determined as 22; in [12] it was 15; in experiment [13] it was 46; in experiment [14] it was 17; in experiment [15], 174. Also, the EC50 (read off the curve) (in general, the concentration giving half of the maximal effect) in experiment [16] was about 0.5 µg/mL.
